{
  "source": "patent EP3875478A1",
  "key": {"human IgG1 (human)": {"target": "human IgG1 (human)", "experiment": "Biacore (SPR), format not described"}, "[1]": {"target": "CD64wt-Bbz CAR (native CD64 - TMCD8 - 4-1BB - CD3z) on primary T lymphocytes (human)", "experiment": "cell-based or functional assay"}, "[2]": {"target": "CD64K130S CAR (4-1BB-CD3z) on primary T lymphocytes (human)", "experiment": "cell-based or functional assay"}, "[3]": {"target": "CD64+V172-28z CAR (CD64 with insertion of Valine at 172 - TMCD8 - CD28 - truncated CD3z) on primary T lymphocytes (human)", "experiment": "cell-based or functional assay"}, "[4]": {"target": "CD64K130Y CAR (CD64 K130Y - TMCD8 - 4-1BB - full CD3z) on primary T lymphocytes (human)", "experiment": "cell-based or functional assay"}, "[5]": {"target": "CD64R175A CAR (CD64 R175A - TMCD8 - CD28 - CD3z) on primary T lymphocytes (human)", "experiment": "cell-based or functional assay"}},
  "data": [
    {"substance": "native CD64 (human high affinity Fc gamma receptor alpha chain), as measured by Biacore", "values": [
      {"measurement": "Kd", "setting": "human IgG1 (human)", "value": 10, "unit": "nM"}
    ]},
    {"substance": "anti-CD20 antibody (Rituximab clone), IgG1", "values": [
      {"measurement": "% inhibition 20%HS vs 10%FBS (24h)", "setting": "[1]", "value": 90.3, "unit": "%"},
      {"measurement": "% inhibition 20%HS vs 10%FBS (3 days)", "setting": "[1]", "value": 91.7, "unit": "%"},
      {"measurement": "% inhibition 20%HS vs 10%FBS (7 days)", "setting": "[1]", "value": 69.5, "unit": "%"},
      {"measurement": "% inhibition (72h, 20% human serum vs 10% FBS)", "setting": "[1]", "value": 92.8, "unit": "%"},
      {"measurement": "gamma IFN secretion in proliferation assay, 10% FBS, mean (3 days)", "setting": "[1]", "value": 203000},
      {"measurement": "gamma IFN secretion in proliferation assay, 10% FBS, mean (7 days)", "setting": "[1]", "value": 107000},
      {"measurement": "gamma IFN secretion in proliferation assay, 20% human serum, mean (3 days)", "setting": "[1]", "value": 16900},
      {"measurement": "gamma IFN secretion in proliferation assay, 20% human serum, mean (7 days)", "setting": "[1]", "value": 32600},
      {"measurement": "gamma interferon secretion, 24h co-culture with Raji, 10% FBS, mean", "setting": "[1]", "value": 12000},
      {"measurement": "gamma interferon secretion, 24h co-culture with Raji, 20% human serum, mean", "setting": "[1]", "value": 1170},
      {"measurement": "gamma interferon secretion, 72h co-culture with Raji, 10% FBS, mean", "setting": "[1]", "value": 123000},
      {"measurement": "gamma interferon secretion, 72h co-culture with Raji, 20% human serum, mean", "setting": "[1]", "value": 8810},
      {"measurement": "inhibition of proliferation by human serum", "setting": "[1]", "value": 6, "unit": "fold"},
      {"measurement": "cytokine secretion, 24h co-culture with Raji, antibody 2 ug/mL, 2,5% Human Serum, mean", "setting": "[2]", "value": 5350},
      {"measurement": "cytokine secretion, 24h co-culture with Raji, antibody 2 ug/mL, 10% FBS, mean", "setting": "[2]", "value": 5410},
      {"measurement": "cytokine secretion, 24h co-culture with Raji, antibody 2 ug/mL, 20% Human Serum, mean", "setting": "[2]", "value": 2730},
      {"measurement": "percent inhibition 20%HS vs 10%FBS", "setting": "[2]", "value": 49.5, "unit": "%"},
      {"measurement": "% inhibition 20%HS vs 10%FBS (24h)", "setting": "[3]", "value": 20.4, "unit": "%"},
      {"measurement": "% inhibition 20%HS vs 10%FBS (3 days)", "setting": "[3]", "value": 40.2, "unit": "%"},
      {"measurement": "% inhibition 20%HS vs 10%FBS (7 days)", "setting": "[3]", "value": 51.7, "unit": "%"},
      {"measurement": "% inhibition (72h, 20% human serum vs 10% FBS)", "setting": "[3]", "value": 31.5, "unit": "%"},
      {"measurement": "gamma IFN secretion in proliferation assay, 10% FBS, mean (3 days)", "setting": "[3]", "value": 438000},
      {"measurement": "gamma IFN secretion in proliferation assay, 10% FBS, mean (7 days)", "setting": "[3]", "value": 753000},
      {"measurement": "gamma IFN secretion in proliferation assay, 20% human serum, mean (3 days)", "setting": "[3]", "value": 262000},
      {"measurement": "gamma IFN secretion in proliferation assay, 20% human serum, mean (7 days)", "setting": "[3]", "value": 364000},
      {"measurement": "gamma interferon secretion, 24h co-culture with Raji, 10% FBS, mean", "setting": "[3]", "value": 11500},
      {"measurement": "gamma interferon secretion, 24h co-culture with Raji, 20% human serum, mean", "setting": "[3]", "value": 9130},
      {"measurement": "gamma interferon secretion, 72h co-culture with Raji, 10% FBS, mean", "setting": "[3]", "value": 399000},
      {"measurement": "gamma interferon secretion, 72h co-culture with Raji, 20% human serum, mean", "setting": "[3]", "value": 273000},
      {"measurement": "inhibition of proliferation by human serum", "setting": "[3]", "value": 38, "unit": "%"}
    ]},
    {"substance": "CD64 with K130S, as measured by Biacore (receptor)", "values": [
      {"measurement": "Kd", "setting": "human IgG1 (human)", "value": 74, "unit": "nM"},
      {"measurement": "fold reduction of the affinity of CD64 for IgG1", "setting": "human IgG1 (human)", "value": 7, "unit": "fold"}
    ]},
    {"substance": "anti-CD20 antibody IgG1 mutated at Leucine 235 to Alanine", "values": [
      {"measurement": "cytokine secretion, 24h co-culture with Raji, antibody 2 ug/mL, 2,5% Human Serum, mean", "setting": "[4]", "value": 2720},
      {"measurement": "cytokine secretion, 24h co-culture with Raji, antibody 2 ug/mL, 10% FBS, mean", "setting": "[4]", "value": 6270},
      {"measurement": "cytokine secretion, 24h co-culture with Raji, antibody 2 ug/mL, 20% Human Serum, mean", "setting": "[4]", "value": 292},
      {"measurement": "percent inhibition 20%HS vs 10%FBS", "setting": "[4]", "value": 95.3, "unit": "%"}
    ]},
    {"substance": "anti-CD22 antibody (m971 clone), IgG1", "values": [
      {"measurement": "cytokine secretion, 24h co-culture with Raji, antibody 2 ug/mL, 10% FBS, mean", "setting": "[4]", "value": 20900},
      {"measurement": "cytokine secretion, 24h co-culture with Raji, antibody 2 ug/mL, 20% Human Serum, mean", "setting": "[4]", "value": 9580},
      {"measurement": "percent inhibition 20%HS vs 10%FBS", "setting": "[4]", "value": 54.2, "unit": "%"},
      {"measurement": "cytokine secretion, 24h co-culture with Raji, antibody 2 ug/mL, 10% FBS, mean", "setting": "[5]", "value": 55900},
      {"measurement": "cytokine secretion, 24h co-culture with Raji, antibody 2 ug/mL, 20% Human Serum, mean", "setting": "[5]", "value": 27000},
      {"measurement": "percent inhibition 20%HS vs 10%FBS", "setting": "[5]", "value": 51.6, "unit": "%"}
    ]},
    {"substance": "CD64 with K130H mutation, as measured by Biacore (receptor)", "values": [
      {"measurement": "Kd", "setting": "human IgG1 (human)", "value": 53, "unit": "nM"},
      {"measurement": "fold lower affinity for IgG1 than native CD64", "setting": "human IgG1 (human)", "value": 5, "unit": "fold"}
    ]}
  ]
}
